Data taken from the RNAGym collection of RNA variant scans (doi:10.1073/pnas.2313332121).

B1: TPR t1 (parent)
chain: GACCAAUCUGCCCUCAGAGCUCGAGAACAUCUUCGGAUGCAGAGGAGGCAGGCUUCGGUGGCGCGAUAGCGCCAACGUCCUCAACCUCCAAUGCAUCCCACCACAUGAUGAUGCCUGAAGAGCCUUGGUUUUUUG

Variants of: B1
Experiment: polymerase ribozyme fitness, log enrichment relative to wild type (log ratio); higher = more active; in vitro selection for triplet polymerase activity
How it was run: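 Each subunit of a heterodimeric triplet polymerase ribozyme was mutagenized into a library by PCR, transcribed, and subjected to one round of in vitro selection, run in triplicate. Libraries were annealed with a biotinylated primer, the partner subunit and triplets, incubated frozen at −7 °C, and extended constructs were gel-excised, captured on streptavidin beads and recovered by RT-PCR. Input and output libraries were sequenced on Illumina, keeping genotypes with ≥10 input reads and ≥1 read per output. Fitness is log base 2 of genotype enrichment divided by wild-type enrichment, from inverse-variance-weighted replicate averages.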

| Variant | polymerase ribozyme fitness (log ratio) |
| --- | --- |
| G93A A118G G135U | -1.11 |
| U92A U106A C114A C123A | -5.83 |
| U92C G128C U130A | -3.52 |
| C89U A90C | -0.815 |
| C88U A90G C99U | -2.84 |
| A90C U109A A118U | -5.95 |
| C89A C101A | -2.25 |
| U87A C104G A111U | -3.77 |
| A91C G113U | -3.8 |
| G93A G110A | -1.24 |
| G93A G110C | -5.32 |
| C89G G120A | -1.58 |
| C88G U96G | -0.738 |
| U87G U126G | -1.84 |
| U92A C98U | -4.66 |
| U87A C124A | 1.83 |
| U87G U96A C102A | -2.66 |
| G93U G113C U125A | -3.4 |
| U87A C89A A91C A95G G113C | -2.9 |
| C88U C114U | -1.17 |
| C88U C114G | -3.05 |
| U87A G93C | -1.3 |
| A90C A118C | -2.82 |
| A90C A118U | -0.0445 |

| Variant | polymerase ribozyme fitness (log ratio) |
| --- | --- |
| U92G A118C | -4 |
| G93A U131C | -0.974 |
| C88A U96C G110C U132C | -4.37 |
| A91U G117A G120C G135C | -3.63 |
| C89G A105G | -3.85 |
| C88U C98G C114G | -6.17 |
| G93A U132C | -0.827 |
| U92G G120A A121C | -2.53 |
| C89A A95C | -3.6 |
| C88A A111C | 0.245 |
| C89A U92G U116G | -5.83 |
| A91U U116G G120C G128U | -4.65 |
| G93A C124A | 0.841 |
| U92G G120C | -1.74 |
| U92A C115G C123G | -5.89 |
| C89U U112A | -0.432 |
| C88A G107U | -4.63 |
| A91C G120U | -1.5 |
| U87A C97U C98U G120A | -2.92 |
| U87C A90G U96A | 0.000334 |
| U92C C115U | -2.72 |
| C88A U112A | -0.232 |
| U92C U112C | 0.33 |
| G93A U129A | -1.36 |

| Variant | polymerase ribozyme fitness (log ratio) |
| --- | --- |
| C88A U116A | -3.6 |
| C88A U116G | -2.94 |
| C89G C98U | -1.55 |
| U87A A108G C114A U116A | -7.38 |
| U87A C94A | -0.438 |
| G93C C114U | -1.65 |
| G93C C114A | -1.83 |
| C88U C101U U106G C123A | -1.23 |
| C89A A100U | -2.67 |
| U87A G128U | -2.2 |
| U87A C97U | -0.196 |
| U87C C89A G113A | -2.28 |
| C89U A119U | -2.2 |
| U92A C114A | -3.48 |
| A90U G110A | -4.07 |
| U87G C102U | -0.897 |
| A91U G93C G113C G135U | -3.6 |
| C89G G113A G127U | -4.45 |
| A90G A103U A119G | -3.56 |
| C89U C101U | -1.33 |
| U92G G93C G117C A121U | -5.65 |
| A90U C97U U125A G127C U130G | -3.85 |
| C89A G135U | -2.26 |
| C89G G113C | -3.04 |

| Variant | polymerase ribozyme fitness (log ratio) |
| --- | --- |
| U92A U133A | -2.62 |
| G93A U116A U130G | -4.69 |
| C89A C123U U129A | -1.73 |
| G93C C94A | -1.68 |
| C89U A121U | 2.14 |
| G93U G117C | -4.08 |
| C88G C114U | -1.84 |
| A91G C94U U109A U112A | -6.42 |
| A91U G113U | -3.5 |
| C89A U96A C115A | -2.16 |
| U87C C104U | 0.232 |
| A91U U112G | -1.73 |
| C89G C102A C114A | -5.12 |
| U92C G120U G127A | -0.833 |
| A91C C123A | -1.1 |
| C89G U126G | -3.19 |
| C89U G120U U125A | -0.262 |
| U87A G117U U129G | -5.03 |
| A90G C102A | -1.25 |
| A91C C104U C123U | 0.398 |
| C88A G122A | -1.31 |
| G93A U109A | -5.41 |
| C89U U96C | -0.473 |
| C89U U96A | -1.3 |

| Variant | polymerase ribozyme fitness (log ratio) |
| --- | --- |
| G93C G135A | -1.71 |
| U92A C94U | -3.3 |
| A91U A111G | -1.26 |
| U92G G110A | -5.46 |
| A90C C102U A111G | -4.24 |
| U87C G113A | -0.807 |
| C89A G113U | -3.35 |
| C89G C123U | -0.521 |
| A91G G113A | -1.95 |
| C88U A100G A108G U133G | -5.29 |
| C89A G122A U125G | -4.57 |
| A90G C101G G113A G117C | -5.96 |
| C88U C89A | -1.24 |
| U92C U112G G113U U130C | -5.75 |
| C88G U92A | -4.09 |
| C88U C99U | -2.42 |
| C88G A111C | 0.0984 |
| G93C A100C U130A | -2.66 |
| G93A G135U | -2.04 |
| C89A U125A | -1.17 |
| C88A C98A | -4.39 |
| A91G G120U | 0.174 |
| C88U C89G U92G | -2.44 |
| U87C U106A G128C | -1.61 |

| Variant | polymerase ribozyme fitness (log ratio) |
| --- | --- |
| A90C C114A C124A U125C | 0.0876 |
| U87G | 0.133 |
| U87C | 0.386 |
| G93A C101U C123U | 0.532 |
| A91C U96G | -1.78 |
| C89G C115G G128A | -6.15 |
| U87G C104U G117A | -3.2 |
| A90C G128C | -3.68 |
| C89G C94U | -0.951 |
| C89G C94A | -2.52 |
| A90G C97U A105C U130A | -3.67 |
| U87A C88G | -1.1 |
| C88A C101G U116C | -2.59 |
| U87A U130A | -0.662 |
| G93U G120U | -1.4 |
| U92C U116C | -2.42 |
| G93A C115A U131A | -0.388 |
| U92G U106A | -1.97 |
| C88U U92A | -2.45 |
| G93C G113C | -3.08 |
| G93C A111U | -5.12 |
| C88U U129A | -0.777 |
| A91G C101U | -1.08 |
| C89A C102G | -6.86 |

| Variant | polymerase ribozyme fitness (log ratio) |
| --- | --- |
| C89G C115A G120C | -1.16 |
| C88G G117A G120C | -4.17 |
| U87G C99U | -3.22 |
| U92C G113A | -1.23 |
| U87C C114U | -1.5 |
| C88U A118G | 0.0785 |
| A90U G93A G110A U131G | -5.42 |
| A90U A95U G113C G122U | -1.98 |
| A91U C115U U130A | -2.33 |
| U87A A105G | -2 |
| C89A C94U U116A | -5.8 |
| U87A A108C G110A | -6.14 |
| U92A A121U U125G | -1.83 |
| A91U G110C A121U | -5.81 |
| C88G U116G | -3.52 |
| U87A G127U | -0.745 |
| C89U G117A | -2.43 |
| A90G U116A | -1.88 |
| U87A G117C | -3.81 |
| C89U G113C G120C | -3.26 |
| U92G G117C U129C U133C | -4.13 |
| C89A C123A | -1.82 |
| C88G C115G | -3.51 |
